Data published in patent publication US20020019040A1 (LEADD B V, published 2002).

Tests used:
[1] = biological target: T1, fusion gene product of GAL4-DNA-binding domain and Apoptin (bait plasmid pGBT-VP3) (chicken anemia virus, UniProt P04386 1-147; Q99152 1-121); assay: yeast two-hybrid
T1 construct: Yeast two-hybrid bait, expressed in yeast strain Y190; also called pGBT9-VP3; not shown: residues encoded by the EcoRI-NdeI linker

[2] = biological target: T1, fusion gene product of GAL4-DNA-binding …; assay: yeast two-hybrid control (HIS3 and LacZ reporters)

Binder | binding result [1] | binding result [2]
GAL4-activation domain fusion of the AAP-3 cDNA clone (pACT) (other, Yeast two-hybrid prey; also called Apoptin-associating clone AAP-3) HEGPMVGGGGVGGGLLENANPLIYQRSGERPVTAGEEDEQVPDSIDAREIFDLIRSINDPEHPLTLEELNVVEQVRVQVSDPESTVAVAFTPTIPHCSMATLIGLSIKVKLLRSLPQRFKMDVHITPGTHASEHAVNKQLADKERVAAALENTHLLEVVNQCLSARS | binds | –
GAL4-activation domain of the empty pACT vector (other, Negative control of the yeast two-hybrid system) ANFNQSGNIADSSLSFTFTNSSNGPNLITTQTNSQALSQPIASSNVHDNFMNNEITASKIDDGNNSKPLSPGWTDQTAYNAFGITTGMFNTTTMDDVYNYLFDDEDTPPNPKKE | – | no binding
